Assay results taken from patent US20220089776A1 (OREGON HEALTH AND SCIENCE UNIVERSITY, published 2022).

Columns and labels:
[1] = target: T1, human activated FXII (FXIIa) (human, UniProt P00748 20-615, limits assumed); assay: cell-based or functional assay
T1 sequence (looked up): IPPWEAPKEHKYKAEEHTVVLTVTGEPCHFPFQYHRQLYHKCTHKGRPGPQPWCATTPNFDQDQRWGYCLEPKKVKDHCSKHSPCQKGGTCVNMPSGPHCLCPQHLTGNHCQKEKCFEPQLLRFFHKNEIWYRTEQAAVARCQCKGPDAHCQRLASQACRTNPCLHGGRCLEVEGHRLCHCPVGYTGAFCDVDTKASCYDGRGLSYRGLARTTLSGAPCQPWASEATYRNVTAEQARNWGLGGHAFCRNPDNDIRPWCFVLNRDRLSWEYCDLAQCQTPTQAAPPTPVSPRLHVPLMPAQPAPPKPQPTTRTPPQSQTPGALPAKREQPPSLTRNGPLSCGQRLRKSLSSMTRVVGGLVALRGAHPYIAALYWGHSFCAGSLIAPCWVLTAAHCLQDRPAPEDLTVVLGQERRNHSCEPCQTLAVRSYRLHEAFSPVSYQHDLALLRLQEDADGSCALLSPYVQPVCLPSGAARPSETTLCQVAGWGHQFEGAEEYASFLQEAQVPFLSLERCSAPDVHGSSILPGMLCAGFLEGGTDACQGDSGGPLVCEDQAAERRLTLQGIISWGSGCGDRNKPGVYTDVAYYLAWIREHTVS

[2] = target: T2, human blood protein factor XII (FXII) (human, UniProt P00748 20-615); assay: cell-based or functional assay
T2 sequence (looked up): T1 sequence (looked up)

mouse FXII = target: T3, mouse FXII (mouse, UniProt Q80YC5 20-597); assay: Western blot of recombinant mouse FXII, non-reduced and reduced SDS-PAGE; primary antibody murine 5C12
T3 construct: mature; Plasma protein; Tested only in the aPTT assay
T3 sequence (looked up): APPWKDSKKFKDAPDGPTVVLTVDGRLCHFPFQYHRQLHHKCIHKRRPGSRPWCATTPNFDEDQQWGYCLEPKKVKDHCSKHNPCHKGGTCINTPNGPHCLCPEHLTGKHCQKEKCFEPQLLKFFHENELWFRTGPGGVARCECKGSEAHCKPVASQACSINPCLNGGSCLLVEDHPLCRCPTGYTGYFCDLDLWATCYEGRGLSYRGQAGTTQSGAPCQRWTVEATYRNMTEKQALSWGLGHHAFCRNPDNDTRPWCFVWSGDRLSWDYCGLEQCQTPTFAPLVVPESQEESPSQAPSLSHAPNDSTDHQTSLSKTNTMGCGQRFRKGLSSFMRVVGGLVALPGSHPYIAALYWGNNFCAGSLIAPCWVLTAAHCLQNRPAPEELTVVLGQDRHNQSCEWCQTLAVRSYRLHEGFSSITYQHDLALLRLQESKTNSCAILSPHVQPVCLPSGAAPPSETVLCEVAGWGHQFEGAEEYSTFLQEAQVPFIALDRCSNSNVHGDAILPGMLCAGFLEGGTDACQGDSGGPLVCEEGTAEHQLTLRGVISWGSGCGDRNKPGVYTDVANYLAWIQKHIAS
Source text: FIG. 3A-3C: Species specificity of 5C12. (FIG. 3A) Western blots of platelet poor plasmas from different species (indicated above each lane) size fractionated by SDS-PAGE […]. Species included in alphabetical order: African green monkey, baboon, beagle, cat, cattle, chicken, cynomolgus monkey, dog, elephant, giant anteater, horse, human, human deficient in FXII, llama, marmoset, pig, rabbit, raccoon, rat, red kangaroo, rhesus macaque and tiger. Human plasma and human deficient in FXII plasma were used in all gels as a positive and negative control, respectively. […] 5C12 also recognizes both the alpha (comprising both the light and heavy chain of FXII) and the beta (comprising only the light chain and a nonapeptide fragment of the heavy chain) form of activated FXII (FXIIa) (FIG. 3C). The primary antibody for all Western blots was murine 5C12, the secondary antibody was goat-anti-mouse polyclonal.

[3] = target: T2, human blood protein factor XII (FXII); assay: cell-based or functional assay; remark: listed apart in the source
[4] = target: T2, human blood protein factor XII (FXII); assay: cell-based or functional assay; remark: listed apart in the source
rat FXII = target: T4, rat FXII (rat, UniProt D3ZTE0 20-595); assay: Western blot of platelet-poor plasma, non-reduced SDS-PAGE
T4 construct: mature; Plasma protein
T4 sequence (looked up): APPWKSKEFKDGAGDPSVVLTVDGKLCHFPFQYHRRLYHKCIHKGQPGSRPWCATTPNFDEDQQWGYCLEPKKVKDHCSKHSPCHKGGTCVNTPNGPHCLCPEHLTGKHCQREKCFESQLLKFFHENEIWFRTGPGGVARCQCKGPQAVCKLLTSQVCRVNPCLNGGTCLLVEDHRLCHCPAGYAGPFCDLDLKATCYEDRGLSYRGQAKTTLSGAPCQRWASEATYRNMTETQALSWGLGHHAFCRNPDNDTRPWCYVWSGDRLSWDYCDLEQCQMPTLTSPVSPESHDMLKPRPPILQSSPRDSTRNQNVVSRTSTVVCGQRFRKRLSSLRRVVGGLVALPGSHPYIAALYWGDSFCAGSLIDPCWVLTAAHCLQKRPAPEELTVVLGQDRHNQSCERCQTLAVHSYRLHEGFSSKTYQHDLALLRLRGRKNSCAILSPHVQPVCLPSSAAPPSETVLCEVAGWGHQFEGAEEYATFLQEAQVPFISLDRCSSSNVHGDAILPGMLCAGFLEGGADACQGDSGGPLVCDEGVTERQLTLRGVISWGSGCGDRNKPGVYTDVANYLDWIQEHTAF

B1: mouse monoclonal antibody 5C12 (antibody, mouse IgG1, kappa, V domains shown)
VH: DVQLQESGPDLVKPSQSLSLTCTVTGYSITSGYSWHWIRQFPGNNLEWMGYIQYSGNTNSNPSLKSRISITRDTSKNQFFLHLNSVTTEDTATYYCARWGSFDYWGQGTTLTVSS
VL: QIVLTQSPAIMSASPGEKVTMTCSASSSVNYMHWYQQKSGTSPKRWIYDTSKLASGVPARFSGSGSGTSYSLTISSMEAGDAATYYCQQWSGNPPTFGGGTILEIKR
notes: Purified from hybridoma; also called AB053; 5C12 MAb
- IC50 (read off the curve): amidolytic activity of 20 nM FXIIa [1]: ~7 nM
- IC50 (read off the curve): FXIIa amidolytic activity after activation of 50 nM FXII with long polyphosphates, PK and HK [2]: ~10 nM
- binding result (mouse FXII): no binding
- IC50 (read off the curve): FXIIa amidolytic activity after activation of 50 nM FXII with short polyphosphates, PK and HK [3]: ~10 nM
- IC50 (read off the curve): FXIIa amidolytic activity after activation of 40 nM FXII with 1 µg/ml dextran sulfate [4]: ~6 nM
- binding result (rat FXII): no binding
